The series deals with the molecule itself. The series can be described thus: FRET or BRET. Background: In BRET a luciferase serves as donor, and the signal depends on an acceptor being close.

B1: Cdc11(E294C)-capped and otherwise Cys-less septin heterooctamer, labeled with AF555-maleimide (donor) or AF647-maleimide (acceptor) (complex, S. cerevisiae)
chain 1: MSGIIDASSALRKRKHLKRGITFTVMIVGQSGSGRSTFINTLFGQQVVDTSTTILLPTDTSTEIDLQLREETVELEDDEGVKIQLNIIDTPGFGDSLDNSPSFEIISDYIRHQYDEILLEESRVRRNPRFKDGRVHAALYLINPTGHGLKEIDVEFIRQLGSLVNIIPVISKSDSLTRDELKLNKKLIMEDIDRWNLPIYNFPFDEDEISDEDYETNMYLRTLLPFAIIGSNEVYEMGGDVGTIRGRKYPWGILDVEDSSISDFVILRNALLISHLHDLKNYTHEILYERYRTCALSGESVAAESIRPNLTKLNGSSSSSTTTRRNTNPFKQSNNINNDVLNPASDMHGQSTGENNETYMTREEQIRLEEERLKAFEERVQQELLLKRQELLQREKELREIEARLEKEAKIKQEE
chain 2: MSAATATAAPVPPPVGISNLPNQRYKIVNEEGGTFTVMLAGESGLGKTTFINTLFQTVLKRADGQQHRQEPIRKTVEIDITRALLEEKHFELRVNVIDTPGFGDNVNNNKAWQPLVDFIDDQHDSYMRQEQQPYRTKKFDLRVHAVLYFIRPTGHGLKPIDIETMKRLSTRANLIPVIAKADTLTAQELQQFKSRIRQVIEAQEIRIFTPPLDADSKEDAKSGSNPDSAAVEHARQLIEAMPFAIVGSEKKFDNGQGTQVVARKYPWGLVEIENDSHSDFRKLRALLLRTYLLDLISTTQEMHYETYRRLRLEGHENTGEGNEDFTLPAIAPARKLSHNPRYKEEENALKKYFTDQVKAEEQRFRQWEQNIVNERIRLNGDLEEIQGKVKKLEEQVKSLQVKKSHLK
chain 3: MSLKEEQVSIKQDPEQEERQHDQFNDVQIKQESQDHDGVDSQYTNGTQNDDSERFEAAESDVKVEPGLGMGITSSQSEKGQVLPDQPEIKFIRRQINGYVGFANLPKQWHRRSIKNGFSFNLLVVGPDGIGKTTLMKTLFNNDDIEANLVKDYEEELANDQEEEEGQGEGHENQSQEQRHKVKIKSYESVIEENGVKLNLNVIDTEGFGDFLNNDQKSWDPIIKEIDSRFDQYLDAENKINRHSINDKRIHAVLYFIEPTGHYLKPLDLKFMQSVYEKVNLIPVIAKSDILTDEEILSFKKTIMNQLIQSNIELFKPPIYSNDDAENSHLSERLFSSLPYAVIGSNDIVENYSGNQVRGRSYPWGVIEVDNDNHSDFNLLKNLLIKQFMEELKERTSKILYENYRSSKLAKLGIKQDNSVFKEFDPISKQQEEKTLHEAKLAKLEIEMKTVFQQKVSEKEKKLQKSETELFARHKEMKEKLTKQLKALEDKKKQLELSINSASPNVNHSPVPTKKKGFLR
chain 4: MDPLSSVQPASYVGFDTITNQIEHRLLKKGFQFNIMVVGQSGLGKSTLINTLFASHLIDSATGDDISALPVTKTTEMKISTHTLVEDRVRLNINVIDTPGFGDFIDNSKAWEPIVKYIKEQHSQYLRKELTAQRERFITDTRVHAILYFLQPNGKELSRLDVEALKRLTEIANVIPVIGKSDTLTLDERTEFRELIQNEFEKYNFKIYPYDSEELTDEELELNRSVRSIIPFAVVGSENEIEINGETFRGRKTRWSAINVEDINQSDFVYLREFLIRTHLQDLIETTSYIHYEGFRARQLIALKENANSRSSAHMSSNAIQR
modifications: Alexa Fluor 555 maleimide (donor batch) or Alexa Fluor 647 maleimide (acceptor batch) on C294
As usually defined, the Kd is the concentration at which binding is half-saturated. A low value points to a tighter complex. The protein B1 registered a Kd of 24.3 ± 13.7 nM.

Source of the values: publication PMC5021511 (Methods in cell biology, 2016).
